# In patent publication US20130202646A1, “COMPOSITIONS AND METHODS FOR MODULATING AUTOPHAGY” (SAN DIEGO STATE UNIVERSITY (SDSU) FOUNDATION, priority 2010, published 2013):
# Legend:
# HL-1 cells [1] = test: Autophagy scored by intracellular distribution of GFP-LC3 (fluorescence microscopy) in HL-1 cells; format: cell-based, murine; details: for modulation of autophagy: HL-1 cells transfected with LC3GFP, treated with Tat protein (FIG. 18)
# HL-1 cells [2] = test: Protection in cell culture by recombinant Tat-Beclin1; format: cell-based
# [3] = test system: isolated perfused rat hearts; test: Langendorff global ischemia/reperfusion injury in isolated perfused rat hearts (CK release, TTC infarct size, hemodynamics)
# adult rat cardiomyocytes [4] = test system: adult rat cardiomyocytes
# adult rat cardiomyocytes [5] = test: Autophagy (GFP-LC3 puncta) in adult rat cardiomyocytes; format: cell-based; details: Tat protein 30 min before CCPA
# [6] = test system: isolated perfused rat hearts; test: Autophagy in isolated perfused rat hearts (LC3-II/LC3-I Western blot, cadaverine dye binding); details: Tat protein approximately 200 nM before SUL
# HL-1 cells [7] = test: Cell death by LDH release after simulated ischemia/reperfusion (sI/R) in HL-1 cells; format: cell-based, murine
# Protocol: Cells of the murine atrial-derived cardiac cell line HL-1^16 were plated in gelatin/fibronectin-coated culture vessels and maintained in Claycomb medium^16 (JRH Biosciences, Lenexa, Kans.) supplemented with 10% fetal bovine serum, 0.1 mm norepinephrine, 2 mm […], 100 U·mL^-1 penicillin, 100 U·mL^-1 streptomycin, and 0.25 μg·mL^-1 amphotericin B. Cells were plated in 14-mm diameter glass bottom microwell dishes (MatTek), and ischemia was introduced by a buffer exchange to ischemia-mimetic solution (in mM: 20deoxyglucose, 125 NaCl, 8 KCl, 1.2 KH2PO4, 1.25 MgSO4, 1.2 CaCl2, 6.25 NaHCO2, 5 sodium lactate, 20 HEPES, pH 6.6) and placing the dishes in hypoxic pouches (GasPakTM EZ, BD Biosciences) equilibrated with 95% N2, 5% CO2. After 2 hr of simulated ischemia, reperfusion was initiated by a buffer exchange to normoxic MKH buffer and incubation at 95% room air, 5% CO2. […] Protein content and LDH activity were determined according to El-Ani et al.^20. Briefly, 25 μl supernatants from 35 mm dishes were transferred into wells of a 96-well plate, and the LDH activities were determined with an LDH-L kit (Sigma), according to the manufacturer. The product of the enzyme was measured spectrophotometrically at 30° C. at a wavelength of 340 nm as described previously^21. […]
Molecule,modulation of autophagy (HL-1 cells [1]),protection (HL-1 cells [2]),"effect on protection by sulfaphenazole given at reperfusion (infarct size) ([3]; FIG. 17, 3 hearts per condition)","infarct size ([3]; absence of SUL, vehicle control 38.5%, p=NS) [%]","infarct size ([3]; pretreatment with Tat-Atg5^K130R, then SUL infusion)","effect on protection by CCPA (LDH release) (adult rat cardiomyocytes [4]; Tat protein 30 min before CCPA, then simulated ischemia)","LDH release under normoxic conditions (adult rat cardiomyocytes [4]; absence of CCPA, normoxia)","injury from sI/R (adult rat cardiomyocytes [4]; absence of CCPA, sI/R)",effect on autophagy (adult rat cardiomyocytes [5]),"effect on autophagy induced by SUL (LC3-II/I ratio, cadaverine dye binding) [6]","autophagy (HL-1 cells [1]; transient transfection, co-transfected with GFP-LC3 (FIG. 6))","effect on autophagy in the second window of protection (HL-1 cells [1]; with CCPA 10 min, washout, 20-24 hr later)","effect on cytoprotection by CCPA (LDH release) (HL-1 cells [7]; inhibitor plus CCPA, then sI/R (2 hr sI, 3 hr R))","effect on cytoprotection by CCPA in the second window of protection (LDH release) (HL-1 cells [7]; with CCPA 10 min, washout, sI/R 20-24 hr later)"
Tat-Beclin1: cell-permeable recombinant Tat fusion of rat Beclin 1; stimulant or activator of autophagy (protein) MRGSHHHHHHGMASMTGGQQMGRDLYDDDDKDRWGSKLGYGRKKRRQRRRGGSTMSGYPYDVPDYAGSMAGTGLEMEGSKASSSTMQVSFVCQRCSQPLKLDTSFKILDRVTIQELTAPLLTTAQAKPGESQEEEANSGEEPFIETRQDGVSRRFIPPARMMSTESANSFTLIGEASDGGTMENLSRRLKVTGDLFDIMSGQTDVDHPLCEECTDTLLDQLDTQLNVTENECQNYKRCLEMLEQMNEGDSEQLQRELKELALEEERLIQELEDVEKNRKVVAENLEKVQAEAERLDQEEAQYQREYSEFKRQQLELDDELKSVENQMRYAQMQLDKLKKTNVFNATFHIWHSGQFGTINNFRLGRLPSAPVEWNEINAAWGQTVLLLHALANKMGLKFQRYRLVPYGNHSYLESLTDKSKELPLYCSGGLRFFWDNKFDHAMVAFLDCVQQFKEEVEKGETRFCLPYRMDVEKGKIEDTGGSGGSYSIKTQFNSEEQWTKALKFMLTNLKWGLAWVSSQFYNK,stimulates autophagy,protection in cell culture,–,–,–,–,–,–,–,–,–,–,–,–
"Tat-Atg5^K130R: Atg5^K130R expressed as a fusion protein with the protein transduction domain derived from HIV Tat; cell-permeable dominant negative inhibitor of autophagy (protein, synthetic peptide or nucleic acid) MRGSHHHHHHGMASMTGGQQMGRDLYDDDDKDRWGSKLGYGRKKRRQRRRGGSTMSGYPYDVPDYAGSMAGTMTDDKDVLRDVWFGRIPTCFTLYQDEITEREAEPYYLLLPRVSYLTLVTDKVKKHFQKVMRQEDVSEIWFEYEGTPLKWHYPIGLLFDLLASSSALPWNITVHFKSFPEKDLLHCPSKDAVEAHFMSCMREADALKHKSQVINEMQKKDHKQLWMGLQNDRFDQFWAINRKLMEYPPEENGFRYIPFRIYQTTTERPFIQKLFRPVAADGQLHTLGDLLREVCPSAVAPEDGEKRSQVMIHGIEPMLETPLQWLSEHLSYPDNFLHISIVPQPTD",inhibits autophagy,–,protection is lost,42.0,30 % of the area at risk,eliminated the protection by CCPA,did not increase LDH release,nor did it exacerbate injury from sI/R,suppressed autophagy,potently suppressed autophagy induced by SUL,–,–,–,–
"Atg5^K130R: dominant negative point mutant of Atg5 delivered by transient transfection in HL-1 cells (protein, UniProt Q9H1Y0 1-275, looked up, variant K130R, mCherry fusion, dominant negative point mutant of Atg5 delivered by transient transfection in HL-1 cells) Autophagy protein 5: MTDDKDVLRDVWFGRIPTCFTLYQDEITEREAEPYYLLLPRVSYLTLVTDKVKKHFQKVMRQEDISEIWFEYEGTPLKWHYPIGLLFDLLASSSALPWNITVHFKSFPEKDLLHCPSKDAIEAHFMSCMREADALKHKSQVINEMQKKDHKQLWMGLQNDRFDQFWAINRKLMEYPAEENGFRYIPFRIYQTTTERPFIQKLFRPVAADGQLHTLGDLLKEVCPSAIDPEDGEKKNQVMIHGIEPMLETPLQWLSEHLSYPDNFLHISIIPQPTD",–,–,–,–,–,–,–,–,–,–,effectively suppressed autophagy,suppressed autophagy in the second window of protection,eliminated the protective effects of CCPA after sI/R,abolished the cytoprotective effect of CCPA
